Results as given in patent US20060084113A1 (published 2006).

Columns and labels:
[1] = target: Protein A-agarose beads (UniProt P38507); assay: phage titer after protein A-agarose
[2] = target: normal rabbit serum / IgG purified from normal rabbit serum; assay: phage titer after normal rabbit IgG
[3] = target: anhydro-trypsin (agarose-immobilized, Pierce) (UniProt P00760); assay: phage on beads, acid elution, pfu; experiment 2
[4] = target: anhydro-trypsin (agarose-immobilized, Pierce) (UniProt P00760); assay: phage on beads, acid elution, pfu; experiment 1
[5] = target: trypsin (immobilized active trypsin, Pierce; or free trypsin) (UniProt P00760); assay: phage on beads, acid elution, pfu
[6] = target: human neutrophil elastase (HNE), immobilized on agarose beads (human) (UniProt P08246); assay: phage on beads, acid elution, pfu
[7] = target: normal rabbit serum / IgG purified from normal rabbit serum; assay: phage titer after normal rabbit IgG and protein A-agarose
[8] = target: anhydro-trypsin (agarose-immobilized, Pierce) (UniProt P00760); assay: phage on beads, elution, pfu
[9] = target: trypsin (immobilized active trypsin, Pierce; or free trypsin) (UniProt P00760); assay: phage on beads, elution, pfu
[10] = target: anhydro-trypsin (agarose-immobilized, Pierce) (UniProt P00760); assay: phage titer after incubation with agarose beads
[11] = target: streptavidin (agarose-immobilized, Sigma) (UniProt P22629); assay: phage titer after incubation with agarose beads
[12] = target: anhydro-trypsin (agarose-immobilized, Pierce) (UniProt P00760); assay: phage on agarose beads, pH 2.2 elution, dot blot
[13] = target: streptavidin (agarose-immobilized, Sigma) (UniProt P22629); assay: phage on agarose beads, pH 2.2 elution, dot blot
[14] = target: trypsin (immobilized active trypsin, Pierce; or free trypsin) (UniProt P00760); assay: phage on trypsin beads, pH 2.2 elution
[15] = target: T1, human neutrophil elastase (HNE), immobilized on agarose beads (human, UniProt P08246 30-247, limits assumed); assay: phage on HNE beads, stepwise pH elution
T1 construct: also called HNE beads; leukocyte elastase
T1 sequence (looked up): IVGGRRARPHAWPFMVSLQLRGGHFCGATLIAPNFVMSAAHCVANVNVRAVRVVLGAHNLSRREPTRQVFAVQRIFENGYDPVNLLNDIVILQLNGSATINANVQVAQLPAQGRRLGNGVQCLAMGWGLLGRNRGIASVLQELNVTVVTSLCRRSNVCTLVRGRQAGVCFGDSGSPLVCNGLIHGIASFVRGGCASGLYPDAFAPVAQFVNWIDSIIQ

[16] = target: T1, human neutrophil elastase (HNE), …; assay: phage on HNE beads, abbreviated pH elution

Sequence of trypsin (immobilized active trypsin, Pierce; or free trypsin) (P00760 24-246): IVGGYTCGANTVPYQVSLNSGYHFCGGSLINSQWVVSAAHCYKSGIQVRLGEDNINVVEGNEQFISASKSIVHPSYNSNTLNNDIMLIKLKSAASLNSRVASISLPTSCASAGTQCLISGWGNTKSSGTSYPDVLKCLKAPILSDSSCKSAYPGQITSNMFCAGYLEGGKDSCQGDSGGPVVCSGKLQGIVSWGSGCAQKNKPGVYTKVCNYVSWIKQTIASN
Sequence of streptavidin (agarose-immobilized, Sigma) (P22629 37-163 limits assumed): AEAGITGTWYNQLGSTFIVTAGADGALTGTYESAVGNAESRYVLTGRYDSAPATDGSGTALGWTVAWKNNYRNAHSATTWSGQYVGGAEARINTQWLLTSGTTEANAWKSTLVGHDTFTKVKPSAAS

For “M13mp18 phage (wild type control, non-display phage)”, the % of input pfu left, +Protein A [1] was 72 % of input, the % of input pfu left, +NRS [2] was 104 % of input and the binding relative to M13mp18 [3] was 1 fold. For the same molecule, the eluted phage, % of input [3] was 0.3 % of input, the binding relative to M13MP18 [4] was 1 fold and the eluted phage, % of input [4] was 0.2 % of input. For the same molecule, the eluted phage, % of input [5] was 0.0005 % of input, the relative binding (to M13MP18) [5] was 1 fold and the eluted phage, % of input [6] was 0.0003 % of input. The relative binding (to M13MP18) [6] was 1 fold, the % of input pfu left, +NRS +Protein A [7] was 88 % of input and the eluted phage, % of input [8] was 0.1 % of input. For the same molecule, the relative binding (to M13MP18) [8] was 1 fold, the eluted phage, % of input [9] was 0.00023 % of input and the relative binding (to M13MP18) [9] was 1 fold.

Molecule MK phage (control, no displayed domain) has a percent residual titer, 1 h, 2 µl IAT [10] of 97%, a percent residual titer, 1 h, 5 µl IAT [10] of 110% and a percent residual titer, 1 h, 10 µl IAT [10] of 99%. It also gave a percent residual titer, 2 h, 2 µl IAT [10] of 103%, a percent residual titer, 2 h, 5 µl IAT [10] of 111% and a percent residual titer, 2 h, 10 µl IAT [10] of 93%. The percent residual titer, 4 h, 2 µl IAT [10] was 95%, the percent residual titer, 4 h, 5 µl IAT [10] was 96% and the percent residual titer, 4 h, 10 µl IAT [10] was 106%. It also gave a percent residual titer, 1 h, 5 µl IS [11] of 106%, a percent residual titer, 2 h, 5 µl IS [11] of 96% and a percent residual titer, 4 h, 5 µl IS [11] of 98%. The percent of total phage recovered in elution buffer, 2 µl IAT [12] was under 1%, the percent of total phage recovered in elution buffer, 5 µl IAT [12] was under 1% and the percent of total phage recovered in elution buffer, 10 µl IAT [12] was under 1%. The percent of total phage recovered in elution buffer, 5 µl IS [13] was under 1%, the percent of input phage recovered, CBS pH 6.5 [14] was 0.00028% and the percent of input phage recovered, TBS pH 7.5 [14] was 0.00034%. The total pfu recovered in elution buffer, CBS pH 6.5 [14] was 1.35e+06 pfu and the total pfu recovered in elution buffer, TBS pH 7.5 [14] was 1.48e+06 pfu.

B1: MA-ITI-E7 phage (ITI-DI-III fusion with the EpiNE-7 changes around the P1 position) (designed binder)
chain: KEDSCQLGYSAGPCVAMFPRYFYNGTSMACETFQYGGCMGNGNNFVTEKECLQTCRGAAETVESCLAKPHTENSFTNVWKDDKTLDRYANYEGCLWNATGVVVCTGDETQCYGTWVPIGLAIPENEGGGSEGGGSEGGGSEGGGTKPPEYGDTPIPGYTYINPLDGTYPPGTEQNPANPNPSLEESQPLNTFMFQNNRFRNRQGALTVYTGTVTQGTDPVKTYYQYTPVSSKAMYDAYWNGKFRDCAFHSGFNEDPFVCEYQGQSSDLPQPPVNAGGGSGGGSGGGSEGGGSEGGGSEGGGSEGGGSGGGSGSGDFDYEKMANANKGAMTENADENALQSDAKGKLDSVATDYGAAIDGFIGDVSGLANGNGATGDFAGSNSQMAQVGDGDNSPLMNNFRQYLPSLPQSVECRPFVFSAGKPYEFSIDCDKINLFRGVFAFLLYVATFMYVFSTFANILRNKES
For B1, the “fold lower total fraction eluted than EpiNE-7 phage” value [15] was about 40 fold, the “fold lower total fraction eluted than EpiNE-7 phage” value [16] was 40 fold and the “fold total fraction eluted against MA-ITI phage” value [16] was 10 fold.
